{
  "source": "paper PMC7566517",
  "about": "“Long-acting antibody ligand mimetics for HER4-selective agonism” (Scientific Reports, 2020)",
  "data": [
    {"target": "T1, recombinant human HER4 ECD, biotinylated (human, UniProt Q15303 26-651, biotinylated (site not stated))", "T1 construct": "human epidermal growth factor receptor family member 4 (HER4, ErbB4), extracellular domain; Captured on streptavidin biosensors by its biotin; also called ErbB4; source: in-house purified recombinant", "T1 sequence (looked up)": "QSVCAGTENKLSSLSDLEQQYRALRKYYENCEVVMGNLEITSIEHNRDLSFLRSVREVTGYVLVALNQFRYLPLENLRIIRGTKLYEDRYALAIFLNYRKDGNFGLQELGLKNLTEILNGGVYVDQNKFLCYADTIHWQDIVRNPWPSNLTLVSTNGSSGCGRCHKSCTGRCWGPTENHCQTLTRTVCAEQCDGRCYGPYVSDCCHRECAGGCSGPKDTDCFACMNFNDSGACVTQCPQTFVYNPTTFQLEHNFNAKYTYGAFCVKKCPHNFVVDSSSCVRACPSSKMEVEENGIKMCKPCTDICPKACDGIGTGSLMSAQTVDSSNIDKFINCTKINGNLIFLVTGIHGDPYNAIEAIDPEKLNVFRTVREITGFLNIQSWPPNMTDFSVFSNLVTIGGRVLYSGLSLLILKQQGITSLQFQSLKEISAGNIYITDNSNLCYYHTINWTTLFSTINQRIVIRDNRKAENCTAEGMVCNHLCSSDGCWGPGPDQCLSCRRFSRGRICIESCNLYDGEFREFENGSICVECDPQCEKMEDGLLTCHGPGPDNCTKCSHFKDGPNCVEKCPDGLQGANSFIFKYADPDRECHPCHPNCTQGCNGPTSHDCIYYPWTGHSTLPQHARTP", "test": "BLI; Octet 384; biotinylated HER4 or HER3 at 1 μg/mL captured on streptavidin biosensors; PBS pH 7.4, 3 mg/mL BSA, 0.05% Tween 20; serial dilutions of the variants; steady-state fit", "settings": "both partners purified", "units": {"Kd": "nM"}, "values": [
      {"binder": "NRG1 fused with human serum albumin (ligand, UniProt Q02297-6 177-236, looked up, neuregulin 1 (NRG1) fused with HSA, control protein; Control protein; also called NRG1-HSA) SHLVKCAEKEKTFCVNGGECFMVKDLSNPSRYLCKCPNEFTGDRCQNYVMASFYKHLGIE", "Kd": 460},
      {"binder": "ALM3 (antibody ligand mimetic 3) (antibody) chain 1: not shown chain 2: EIVLTQSPGTLSLSPGERATFSCRSSHSIRSRRVAWYQHKPGQAPRLVIHGVSNRASGISDRFSGSGSGTDFTLTITRVEPEDFALYYCQVYGASSYTFGQGTKLERKRTVAAPSVFIFPPSDEQLKSGTASVVCLLNNFYPREAKVQWKVDNALQSGNSQESVTEQDSKDSTYSLSSTLTLSKADYEKHKVYACEVTHQGLRSPVTKSFNRGEC", "Kd": "> 10000"},
      {"binder": "ALM4 (antibody ligand mimetic 4) (antibody) chain 1: not shown chain 2: EIVLTQSPGTLSLSPGERATFSCRSSHSIRSRRVAWYQHKPGQAPRLVIHGVSNRASGISDRFSGSGSGTDFTLTITRVEPEDFALYYCQVYGASSYTFGQGTKLERKRTVAAPSVFIFPPSDEQLKSGTASVVCLLNNFYPREAKVQWKVDNALQSGNSQESVTEQDSKDSTYSLSSTLTLSKADYEKHKVYACEVTHQGLRSPVTKSFNRGEC", "Kd": 5600},
      {"binder": "NRG1-MFc fusion protein (NRG1 EGF domain fused with monomeric Fc) (Fc fusion, human, neuregulin-1 beta (NRG1b) EGF domain, about 60 amino acids; numbers count on: the EGF domain (His2, Cys45); also called neuregulin-MFc; parental clone; source: HEK293FT, transient transfection, purified (protein A); not shown: monomeric Fc (MFc C4)) GTSHLVKCAEKEKTFCVNGGECFMVKDLSNPSRYLCKCPNEFTGDRCQNYVMASF", "Kd": 640}
    ]}
  ]
}
